Experimental findings from patent US20260265354A1 (JIANGSU MABWELL HEALTH PHARMACEUTICAL R AND D, published 2026) are described below.

Changes are numbered by the printed parent chain.

Sequences and labels used below:
B1: Antibody R012 (antibody, V domains shown)
VH: SKSVEESGGRLVTPGTPLTLTCTVSGFSLSTYAMSWVRQAPGKGLEYIGIISGRGTTYYASWLKGRFTISKTSTTVDLKITSPTTEDTATYFCARDAGISDVYTGYFNLWGQGTLVTVSS
VL: QPVLAQLPSASAALGASAKLTCTLSSAHRTYTIAWYQQQQGEAPRYLMMLKSDGSYTKGTGVPDRFSGSSSGADRYLIISSVQAADEADYYCGADDSGGYVFGGGTQLTVTG
notes: Rabbit monoclonal antibody from phage display; also called Nectin-4 rabbit monoclonal antibody R012; rabbit antibody R012
B2: Antibody R036 (antibody, V domains shown)
VH: SQSVEESGGRLVTPGTPLTLTCTVSGFSLSSYAMSWVRQAPGKGLEYIGIIGGRGTTYYAIWAKGRFTISKTSTTVDLKITSPTTEDTATYFCARDAGTTYVGTTYVATGYFNLWGQGTLVTVSS
VL: B1 VL with A5T, L7P, R29K, M49I, K58R, A85D
notes: Rabbit monoclonal antibody from phage display; also called Nectin-4 rabbit monoclonal antibody R036; rabbit antibody R036
B3: Antibody MM11 (antibody, mouse IgG1, kappa, V domains shown)
VH: DVQLQESGPGLVKPSQSLSLTCSVTGYSITSNFYWNWIRQFPGNRLEWMGYISYDGSNNYNPSLKNRISISRDTSKNQFFLKLNSVTTEDTATYYCVRADYWGQGTLVTVSA
VL: DTVMTQTPLSLPVSLGDQASISCRSSQSLESSDGHAYLNWYLQKPGQSPQLLIYRVSNRFSGVLHRFSGSGSGTDFTLKISRVEAEDLGVYFCLQFTHVPFTFGSGTKLEIKR
notes: Mouse monoclonal antibody from hybridoma; also called Nectin-4 mouse monoclonal antibody MM11; mouse antibody MM11

T2 sequence (Q9NQS3 58-404 limits assumed): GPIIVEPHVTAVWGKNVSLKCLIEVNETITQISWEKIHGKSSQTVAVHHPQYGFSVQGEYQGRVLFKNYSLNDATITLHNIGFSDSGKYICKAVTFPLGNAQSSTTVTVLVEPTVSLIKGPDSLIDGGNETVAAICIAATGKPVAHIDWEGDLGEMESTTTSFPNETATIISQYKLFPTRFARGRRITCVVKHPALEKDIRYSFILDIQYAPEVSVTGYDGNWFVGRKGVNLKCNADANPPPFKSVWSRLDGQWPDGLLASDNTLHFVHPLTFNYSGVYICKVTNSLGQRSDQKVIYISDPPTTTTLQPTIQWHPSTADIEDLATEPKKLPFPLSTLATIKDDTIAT

The first experiment has as its target T1, Nectin-like-4 (UniProt Q8NFZ8 21-324, limits assumed).
T1 construct: Bought recombinant protein; also called CADM4; IgSF4C
T1 sequence (looked up): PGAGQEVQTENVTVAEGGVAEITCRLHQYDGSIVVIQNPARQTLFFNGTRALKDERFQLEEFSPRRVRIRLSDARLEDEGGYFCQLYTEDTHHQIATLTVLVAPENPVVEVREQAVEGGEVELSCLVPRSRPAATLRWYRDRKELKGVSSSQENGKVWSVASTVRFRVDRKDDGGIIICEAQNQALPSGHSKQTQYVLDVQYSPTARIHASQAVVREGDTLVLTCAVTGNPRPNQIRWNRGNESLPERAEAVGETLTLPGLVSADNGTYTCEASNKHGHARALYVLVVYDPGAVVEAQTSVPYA
Briefly: ELISA, coated antigen, antibody at 1000 ng/ml. The procedure: (§1) Coating: Nectin-1, Nectin-2, Nectin-3, Nectin-4, Nectin-like-1, Nectin-like-2, Nectin-like-3, Nectin-like-4, and Nectin-like-5 were diluted to 5 μg/ml in coating buffer (carbonate buffer, pH 9.6) respectively. A 96-well plate was coat with 100 μl per well and incubated overnight at 2-8° C.;
(§2) Sample loading: The plate was taken out, patted dry, and washed twice with 200 μl/well of PBST, then patted dry. The Nectin-4 antibodies prepared in Example 1 (antibody MM11, antibody R012, and antibody R036) were diluted with 1% BSA/PBST to concentrations of 10 μg/ml, 1 μg/ml, 100 ng/ml, and 10 ng/ml, respectively. 1% BSA/PBST solution for dilution was set as a blank control. 100 μl per well was added to the 96-well plate, and incubated at room temperature for 2 hours;
(§3) Reaction termination and plate reading: 100 μl/well of 1 mol/L H3PO4 was added to terminate the reaction and the plated was read. The absorbances of wells in the plate at 450 nm with 650 nm as reference wavelength were read and recorded as OD_{450 nm-650 nm}.
B1: the OD detection value came to 0.007 OD450 nm-650 nm.

The molecule B2 displayed an OD detection value of 0.007 OD450 nm-650 nm.

Molecule B3 came in with an OD detection value of 0.01 OD450 nm-650 nm.

A further experiment addresses T2, Nectin-3 (UniProt Q9NQS3 58-404, limits assumed).
T2 construct: Bought recombinant protein; also called CD113; PVRL-3
The experiment can be described thus: ELISA, coated antigen, antibody at 1000 ng/ml. The procedure: as §1, §2, §3
(In general: An ELISA detects its analyte on a solid surface through an enzyme-linked reagent.)
With B1, the OD detection value came to 0.007 OD450 nm-650 nm.

As for B2, the OD detection value was found to be 0.007 OD450 nm-650 nm.

As to B3, the OD detection value was 0.008 OD450 nm-650 nm.

The next experiment has as its target T3, Nectin-like-2 (UniProt Q9BY67 45-374, limits assumed).
T3 construct: Bought recombinant protein; also called CADM1; IgSF4
T3 sequence (looked up): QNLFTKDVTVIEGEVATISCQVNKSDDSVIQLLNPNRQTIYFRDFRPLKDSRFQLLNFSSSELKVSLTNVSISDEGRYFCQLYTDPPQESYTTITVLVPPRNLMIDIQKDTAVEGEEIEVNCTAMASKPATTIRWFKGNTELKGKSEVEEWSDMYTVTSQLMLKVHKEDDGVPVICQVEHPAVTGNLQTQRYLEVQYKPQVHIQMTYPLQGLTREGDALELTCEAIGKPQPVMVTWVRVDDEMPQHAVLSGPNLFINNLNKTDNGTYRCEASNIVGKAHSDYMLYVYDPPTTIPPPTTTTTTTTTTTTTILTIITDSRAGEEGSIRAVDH
The experiment can be described thus: ELISA, coated antigen, antibody at 1000 ng/ml. As for the experimental part:
as §1, §2, §3
For B1, the OD detection value came out at 0.007 OD450 nm-650 nm.

With B2, the OD detection value is 0.006 OD450 nm-650 nm.

For B3, the OD detection value was 0.008 OD450 nm-650 nm.

In the next experiment the target is T4, Nectin-like-1 (UniProt Q8N126 25-330, limits assumed).
T4 construct: Bought recombinant protein; also called CADM3; IgSF4B
T4 sequence (looked up): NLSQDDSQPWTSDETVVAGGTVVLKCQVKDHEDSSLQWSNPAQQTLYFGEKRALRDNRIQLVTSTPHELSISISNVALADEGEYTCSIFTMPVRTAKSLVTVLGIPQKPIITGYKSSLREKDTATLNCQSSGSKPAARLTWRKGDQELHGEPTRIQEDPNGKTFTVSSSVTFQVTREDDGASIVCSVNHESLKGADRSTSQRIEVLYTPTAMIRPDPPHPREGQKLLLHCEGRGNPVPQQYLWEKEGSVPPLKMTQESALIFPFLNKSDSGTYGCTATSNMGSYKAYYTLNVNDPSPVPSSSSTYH
Briefly: ELISA, coated antigen, antibody at 1000 ng/ml. The procedure:
as §1, §2, §3
As to B1, the OD detection value worked out at 0.01 OD450 nm-650 nm.

As for B2, the OD detection value came to 0.007 OD450 nm-650 nm.

B3 gave an OD detection value of 0.008 OD450 nm-650 nm.

In another experiment the target is T5, Nectin-like-5 (UniProt P15151 21-343).
T5 construct: Bought recombinant protein; also called CD155; PVR
T5 sequence (looked up): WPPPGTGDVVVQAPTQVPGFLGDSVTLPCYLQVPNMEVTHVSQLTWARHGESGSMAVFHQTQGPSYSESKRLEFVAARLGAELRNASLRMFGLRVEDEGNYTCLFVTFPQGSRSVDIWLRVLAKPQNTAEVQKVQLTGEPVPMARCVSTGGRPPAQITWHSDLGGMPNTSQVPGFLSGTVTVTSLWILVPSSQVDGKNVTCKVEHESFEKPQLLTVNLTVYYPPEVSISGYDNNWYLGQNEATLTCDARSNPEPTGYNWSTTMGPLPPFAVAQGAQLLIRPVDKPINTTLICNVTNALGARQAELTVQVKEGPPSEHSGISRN
Briefly: ELISA, coated antigen, antibody at 1000 ng/ml. The procedure: as §1, §2, §3
In turn, B1 came in with an OD detection value of 0.008 OD450 nm-650 nm.

In turn, B2 had an OD detection value of 0.009 OD450 nm-650 nm.

Take B3: the OD detection value stood at 0.008 OD450 nm-650 nm.

A further experiment has as its target T6, Nectin-like-3 (UniProt Q8N3J6 25-367, limits assumed).
T6 construct: Bought recombinant protein; also called CADM2; IgSF4D
T6 sequence (looked up): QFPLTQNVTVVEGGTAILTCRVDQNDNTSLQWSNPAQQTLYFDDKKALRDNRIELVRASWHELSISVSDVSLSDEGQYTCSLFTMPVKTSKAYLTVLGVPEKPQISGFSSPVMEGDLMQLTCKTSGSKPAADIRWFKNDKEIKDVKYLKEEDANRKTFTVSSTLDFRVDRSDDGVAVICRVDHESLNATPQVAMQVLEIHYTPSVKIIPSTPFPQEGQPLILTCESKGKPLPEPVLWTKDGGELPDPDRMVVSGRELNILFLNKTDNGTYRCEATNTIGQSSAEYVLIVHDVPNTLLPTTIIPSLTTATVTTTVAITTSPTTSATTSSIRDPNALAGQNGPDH
Briefly: ELISA, coated antigen, antibody at 1000 ng/ml. As for the experimental part: as §1, §2, §3
Molecule B1 showed an OD detection value of 0.008 OD450 nm-650 nm.

Molecule B2 yielded an OD detection value of 0.007 OD450 nm-650 nm.

B3 registered an OD detection value of 0.029 OD450 nm-650 nm.

A further experiment has as its target T7, recombinant human Nectin-4 protein (human, UniProt Q96NY8 32-349).
T7 construct: Prepared in-house (Jiangsu Mabwell) by transient transfection of CHO cells; also called PVRL-4; PRR-4
T7 sequence: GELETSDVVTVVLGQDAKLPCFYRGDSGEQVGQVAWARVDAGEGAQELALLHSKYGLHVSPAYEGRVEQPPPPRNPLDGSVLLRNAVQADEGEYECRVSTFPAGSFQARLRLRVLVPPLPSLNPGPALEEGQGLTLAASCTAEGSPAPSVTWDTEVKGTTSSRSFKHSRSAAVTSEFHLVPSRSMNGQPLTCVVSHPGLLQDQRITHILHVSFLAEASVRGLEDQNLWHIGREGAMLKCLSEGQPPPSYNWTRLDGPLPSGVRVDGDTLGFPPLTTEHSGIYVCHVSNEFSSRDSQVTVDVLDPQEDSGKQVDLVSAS
The experiment can be described thus: ELISA, coated antigen, antibody at 1000 ng/ml. As for the experimental part:
as §1, §2, §3
Take B1: the OD detection value is 1.56 OD450 nm-650 nm.

In the case of B2, the OD detection value turned out to be 1.64 OD450 nm-650 nm.

For the molecule B3, the OD detection value is 2.05 OD450 nm-650 nm.
